Data reported in patent US20250313625A1 (ELPISCIENCE SUZHOU BIOPHARMA, published 2025).
Changes are numbered by the printed parent chain. Numbers in names are those of the source. Blank lines part the entries; values can stand above or below the binder they belong to.

Assays:
[1] = target: T1, mFc tagged human LAG3 ECD recombinant protein (human, UniProt P18627 23-450); experiment: competitive FACS: mFc tagged human LAG3 ECD binding to MHC II on Raji cells
T1 construct: extracellular domain; purchased from Biointron; not shown: mouse IgG Fc (mFc) tag
T1 sequence (looked up): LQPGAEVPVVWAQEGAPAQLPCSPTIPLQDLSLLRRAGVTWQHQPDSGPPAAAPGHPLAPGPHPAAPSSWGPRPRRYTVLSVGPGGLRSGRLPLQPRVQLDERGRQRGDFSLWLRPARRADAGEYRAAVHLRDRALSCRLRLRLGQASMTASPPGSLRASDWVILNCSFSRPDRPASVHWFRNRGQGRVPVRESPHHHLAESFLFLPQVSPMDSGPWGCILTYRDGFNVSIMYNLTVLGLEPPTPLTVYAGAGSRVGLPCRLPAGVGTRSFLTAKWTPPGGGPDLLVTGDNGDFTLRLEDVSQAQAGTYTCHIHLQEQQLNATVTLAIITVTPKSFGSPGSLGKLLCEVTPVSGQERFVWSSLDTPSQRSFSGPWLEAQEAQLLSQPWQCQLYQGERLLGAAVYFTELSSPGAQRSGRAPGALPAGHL
Experimental: (§1) Activity of the purified chimeric antibodies to block LAG3 and MHC II interaction was determined by competitive FACS assay. […] After washing, dye labeled anti-mouse Fc 2nd antibody (Sigma) was added and incubated at 37° C. for 1 hour. Fluorescence intensity was detected.

[2] = target: T2, human LAG3 (form used in Octet, Biacore and HDX-MS not given) (human, UniProt P18627 23-450, limits assumed); experiment: BLI (Octet), 1:1 fit
T2 sequence (looked up): T1 sequence (looked up)
Experimental: (§2) The association and dissociation curves were fit with 1:1 binding model, and the Ka/Kd/KD values for each antibody were calculated.
as §2

[3] = target: T2, human LAG3 (form used in Octet, Biacore …); experiment: BLI (Octet)
[4] = target: T3, hFc tagged human LAG3 D1-D2 recombinant protein (human, UniProt P18627 23-261); experiment: ELISA, coated hFc-hLAG3 D1-D2
T3 construct: range 23-261; generated by Chempartner; also called hLAG3 D1-D2; not shown: human IgG Fc tag
T3 sequence (looked up): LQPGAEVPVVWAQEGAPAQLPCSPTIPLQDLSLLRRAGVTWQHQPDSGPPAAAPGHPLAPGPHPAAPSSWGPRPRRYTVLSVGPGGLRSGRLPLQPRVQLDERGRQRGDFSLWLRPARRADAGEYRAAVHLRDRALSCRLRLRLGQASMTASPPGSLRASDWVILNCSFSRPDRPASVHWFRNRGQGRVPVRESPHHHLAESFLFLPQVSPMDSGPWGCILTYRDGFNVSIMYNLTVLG
Experimental: Binding activity of the purified hybridoma antibodies against human LAG3 was detected by ELISA assay using hFc tagged human LAG3 D1-D2 recombinant protein. Briefly the antibodies were incubated with ELISA microplate coated antigens at 37° C. for 1 hour. After washing, horseradish peroxidase (HRP) labeled anti-human IgG 2nd Ab (Sigma) was added and incubated at 37° C. for 1 hour. Then, 100 μl/well of TMB solution (Biotechnology) was added. After incubation for 15 minutes at room temperature, the reaction was stopped by the addition of 50 μl of 1N HCl. OD 450 nm was read and EC₅₀ was calculated using GraphPad Prism9.0.

[5] = target: T4, human LAG3, full length, stably expressed on cells (human, UniProt P18627 23-525); experiment: FACS on 293F-human LAG3 cells
T4 construct: whole, on cells; also called CHOK1-human LAG3
T4 sequence (looked up): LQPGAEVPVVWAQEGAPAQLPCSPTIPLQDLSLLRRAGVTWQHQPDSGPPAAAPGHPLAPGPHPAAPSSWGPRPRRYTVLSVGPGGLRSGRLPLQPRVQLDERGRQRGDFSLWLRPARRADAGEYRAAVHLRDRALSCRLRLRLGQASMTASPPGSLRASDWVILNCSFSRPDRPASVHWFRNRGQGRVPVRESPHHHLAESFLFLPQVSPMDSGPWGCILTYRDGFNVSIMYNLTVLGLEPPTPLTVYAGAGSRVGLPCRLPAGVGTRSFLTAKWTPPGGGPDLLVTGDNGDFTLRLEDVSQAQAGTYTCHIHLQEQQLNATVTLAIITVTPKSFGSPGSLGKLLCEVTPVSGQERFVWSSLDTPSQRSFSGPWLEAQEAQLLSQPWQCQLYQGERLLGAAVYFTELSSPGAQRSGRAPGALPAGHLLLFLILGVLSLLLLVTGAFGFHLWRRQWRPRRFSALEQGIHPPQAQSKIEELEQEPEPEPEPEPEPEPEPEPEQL
Experimental: (§3) Briefly the antibodies were incubated with 2×10⁵ target cells at 4° C. for 1 hour. After washing, fluorescence labeled anti-mouse IgG 2nd antibody (Life Technologies) was added and incubated at 4° C. for 1 hour. Geometric median fluorescence intensity (MFI) was detected and EC₅₀ was calculated using GraphPad Prism9.0.

[6] = target: T5, hFc tagged human LAG3 ECD recombinant protein (human, UniProt P18627 23-450); experiment: competitive ELISA: excess competitor, biotin hFc-LAG3 ECD, coated BMS-986016
T5 construct: range 23-450; also called biotin labelled hFc tagged human LAG3 ECD; not shown: human IgG Fc tag
T5 sequence (looked up): T1 sequence (looked up)
Experimental: (§4) Competitive ELISA assay was used for epitope binning of the purified hybridoma antibodies. […] After washing, HRP labeled anti-streptavidin (SA) 2nd antibody (Sigma) was added and incubated at 37° C. for 1 hour. Then, 100 μl/well of TMB solution (Biotechnology) was added. After incubation for 15 minutes at room temperature, the reaction was stopped by the addition of 50 μl of 1N HCl. OD 450 nm was read. Competition ratio was calculated.

[7] = target: T6, mouse LAG3, full length, stably expressed on CHOK1 cells (mouse, UniProt Q61790 24-521); experiment: FACS on CHOK1 cells expressing mouse LAG3
T6 construct: whole, on cells
T6 sequence (looked up): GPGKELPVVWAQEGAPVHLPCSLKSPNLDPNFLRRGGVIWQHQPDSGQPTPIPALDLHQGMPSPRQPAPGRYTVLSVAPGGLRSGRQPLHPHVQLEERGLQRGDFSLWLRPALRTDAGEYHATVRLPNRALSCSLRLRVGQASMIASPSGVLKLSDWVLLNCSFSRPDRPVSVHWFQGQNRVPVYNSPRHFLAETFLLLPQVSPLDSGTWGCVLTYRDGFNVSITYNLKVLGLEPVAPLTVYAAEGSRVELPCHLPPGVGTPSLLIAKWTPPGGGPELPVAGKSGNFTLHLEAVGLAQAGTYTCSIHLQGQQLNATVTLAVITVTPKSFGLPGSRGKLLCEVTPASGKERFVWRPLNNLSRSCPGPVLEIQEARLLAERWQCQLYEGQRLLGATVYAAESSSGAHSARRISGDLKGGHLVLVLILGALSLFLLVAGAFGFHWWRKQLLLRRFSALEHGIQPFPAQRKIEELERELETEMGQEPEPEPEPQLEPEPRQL
Experimental: as §3

[8] = target: T5, hFc tagged human LAG3 ECD recombinant …; experiment: competitive ELISA: excess competitor, biotin hFc-LAG3 ECD, coated BAP-050
Experimental: as §4

[9] = target: T5, hFc tagged human LAG3 ECD recombinant …; experiment: competitive FACS: hFc-LAG3 ECD binding to Raji cells (MHC II)
Experimental: Competitive FACS assay was used to determine whether the purified hybridoma antibodies can block LAG3 and MHC II interaction. […] After washing, dye labeled anti-human Fc 2nd antibody (Sigma) was added and incubated at 37° C. for 1 hour. Fluorescence intensity was detected.

[10] = target: T4, human LAG3, full length, stably …; experiment: FACS on 293F cells stably expressing human LAG3
Experimental: as §3
MFI was detected and EC₅₀ was calculated using GraphPad Prism9.0.

[11] = target: T1, mFc tagged human LAG3 ECD recombinant …; experiment: competitive FACS: mFc-LAG3 ECD binding to Raji cells (MHC II)
Experimental: as §1

B1: hu029.53 (antibody, V domains shown)
VH: QVQLVESGGGLVKPGGSLRLSCAASGFTFSSYAMSWIRQAPGKGLEWVAYVTSGGDYIYYADTVKGRFTISRDDAKNSLYLQMNSLRAEDTAMYYCTRVAYDYEWYFDVWGQGALVTVSS
VL: DIQMTQSPSSVSASVGDRVTITCKASQDVTTAVAWYQQKPGKAPKLLIYSASYRYTGVPSRFSGSGSGTDFTLTISSLQPEDFATYYCQQHDSSPWTFGQGTKLEIK
notes: humanized from 029c
- %Blocking at 2 nM [1]: 21.4%
- %Blocking at 4 nM [1]: 31.9%
- %Blocking at 8 nM [1]: 98%
- Kd [2]: 4.94 nM
- koff [2]: 0.0217 s⁻¹
- kon [2]: 4.38e+06 M⁻¹ s⁻¹

B2: hu023.05 (antibody, human IgG4, V domains shown)
VH: QVQLVQSGAEVKKPGASVKVSCKASGYTFTESPMNWVRQAPGQGFEWMGIIYTDTGEPTYAEEFKGRVTMTRDTSTSTVYMELSSLRSEDTAVYFCASDYGSILYWYFDVWGQGTLVTVSS
VL: B1 VL with V11L, T30S, A43S, L73F, D92Y, S93N, S94A, W96P
notes: humanized from 023c
- Kd [3]: 0.616 nM
- koff [3]: 0.000198 s⁻¹
- kon [3]: 321000 M⁻¹ s⁻¹

B3: hu023.06 (antibody, human IgG4, V domains shown)
VH: B2 VH
VL: B1 VL with V11L, A13T, T30S, A43S, L73F, L78V, D92Y, S93N, S94A, W96P
notes: humanized from 023c
- Kd [3]: 0.657 nM
- koff [3]: 0.000161 s⁻¹
- kon [3]: 246000 M⁻¹ s⁻¹

B9: Antibody 039 (antibody, V domains shown)
VH: EFQLQQSGPELVKPGASVKISCKASGYSFTDYNLNWVRQSNGKSLEWIGLVDPIYGTIRYNQNFKDKATLTVDQSSSTAYMQLNSLTSEDSAVYYCASIMTAVRYFDHWGQGTTLTVSS
VL: DVLMTQTPLFLPVSLGDQASISCRSSLNIVHSDGNTYLEWYLQKPGQSPKLLIYKVSNRFSGVPDRFSGSGSGTDFTLKISGVEAEDLGVYYCFQGSHVPPTFGGGTKLEIK
notes: mouse hybridoma antibody
- EC50 [4]: 0.04 nM
- EC50 [5]: 1.38 nM
- % competition [6]: 19.3%
- binding result [7]: no binding
- % competition [8]: 2.6%
- IC50 [9]: 5.2 nM
- TOP blocking (%) [9]: 94.9%

B10: Antibody 015 (antibody, V domains shown)
VH: EVQLQQSGPVLVKPGASVKLSCKASGFTFTDYYMNWVKLSHGKSLEWIGVINPFNGDTAYKQKFKGKATLTVDKSSSTAYMELNSLTSEDSAVYYCARDDGYYLYYFDSWGQGTTLTVSS
VL: DIQMTQSPSSLSASLGERVSLTCRASQDIGSRLNWLQQEPDGTIKRLIYATSSLDSGVPKRFSGSRSGSDYSLTISSLDSEDFVVYYCLQYASSPPTFGAGTKLELK
notes: mouse hybridoma antibody
- EC50 [4]: 0.25 nM
- EC50 [5]: 2.09 nM
- % competition [6]: 10%
- binding result [7]: no binding
- % competition [8]: 1.6%
- IC50 [9]: 2.7 nM
- TOP blocking (%) [9]: 94.3%

B11: 038c (antibody, human IgG4, V domains shown)
VH: DVQVQESGPGLVKPSQSLSLTCSVTGYSITSGYYWNWIRQFPGNKLEWMGYISYDGSNEYNLSLKNRLSITRDTSKNQFFLKLNSVTTEDTATYYCAREEDGYYGGMDYWGQGTSVTVSS
VL: DIVMTQSHKFMSASVGVRVSITCRASQDVDTAVAWYQQKPGQSPKLLIYWASTRHTGVPDRFTGSGSGTDFTLTISNVQSEDLADYFCQQYSSYPYTFGGGTKLEIK
notes: human IgG4 S228P / kappa chimeric antibody; also called chimeric antibody 038; not shown: human kappa light chain constant region (pcDNA3.4-hIgGk vector)
- EC50 [10]: 2.3 nM
- IC50 [11]: 5.2 nM
- TOP blocking (%) [11]: 98.4%

Other lines, results leading:

- Kd [3]: 0.704 nM
- koff [3]: 0.000204 s⁻¹
- kon [3]: 290000 M⁻¹ s⁻¹
B4: hu023.09 (antibody, human IgG4, V domains shown)
VH: B2 VH with A9P, R72L
VL: B1 VL with V11L, A13T, T30S, A43S, L73F, L78V, D92Y, S93N, S94A, W96P
notes: humanized from 023c

- Kd [3]: 0.24 nM
- koff [3]: 7.72e-05 s⁻¹
- kon [3]: 322000 M⁻¹ s⁻¹
B5: hu023.14 (antibody, human IgG4, V domains shown)
VH: QIQLVQSGPELKKPGASVKISCKASGYTFTESPMNWVRQAPGQGFEWMGIIYTDTGEPTYAEEFKGRFVFSLDTSVSTAYLQISSLKAEDTAVYFCVSDYGSILYWYFDVWGQGTLVTVSS
VL: B1 VL with V11L, T30S, A43S, L73F, D92Y, S93N, S94A, W96P
notes: humanized from 023c

- Kd [3]: 0.189 nM
- koff [3]: 5.58e-05 s⁻¹
- kon [3]: 296000 M⁻¹ s⁻¹
B6: hu023.12 (antibody, human IgG4, V domains shown)
VH: B5 VH with I2V, I20V
VL: B1 VL with V11L, A13T, T30S, A43S, L73F, L78V, D92Y, S93N, S94A, W96P
notes: humanized from 023c

- Kd [3]: 0.689 nM
- koff [3]: 0.000219 s⁻¹
- kon [3]: 318000 M⁻¹ s⁻¹
B7: hu023.08 (antibody, human IgG4, V domains shown)
VH: B2 VH with A9P, R72L
VL: B1 VL with V11L, T30S, A43S, L73F, D92Y, S93N, S94A, W96P
notes: humanized from 023c

- %Blocking at 2 nM [1]: 19.6%
- %Blocking at 4 nM [1]: 43.4%
- %Blocking at 8 nM [1]: 99.1%
- Kd [2]: 4.79 nM
- koff [2]: 0.0224 s⁻¹
- kon [2]: 4.68e+06 M⁻¹ s⁻¹
B8: hu029.40 (antibody, V domains shown)
VH: B1 VH with I37V, G44R
VL: B1 VL with A13T, L73F, L78V
notes: humanized from 029c
